Measurements taken from patent publication US20030148958A1 (PROCTER AND GAMBLE, published 2003).
Ends that are not written are not given here.

T1: corticotropin releasing factor 2 receptor
T1 sequence (Q13324 whole entry, species assumed, looked up): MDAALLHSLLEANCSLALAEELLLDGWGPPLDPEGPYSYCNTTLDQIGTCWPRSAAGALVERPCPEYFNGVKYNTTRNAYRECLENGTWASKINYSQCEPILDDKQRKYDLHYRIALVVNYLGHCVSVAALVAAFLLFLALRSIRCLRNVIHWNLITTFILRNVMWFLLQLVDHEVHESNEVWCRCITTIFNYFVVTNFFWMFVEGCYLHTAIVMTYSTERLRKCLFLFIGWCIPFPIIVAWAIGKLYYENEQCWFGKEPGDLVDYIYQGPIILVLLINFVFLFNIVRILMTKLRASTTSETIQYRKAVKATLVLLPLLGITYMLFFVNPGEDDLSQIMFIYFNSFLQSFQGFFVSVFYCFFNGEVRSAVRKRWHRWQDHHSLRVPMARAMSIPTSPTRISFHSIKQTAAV


Experiments:
[1] = molecular target: T1, corticotropin releasing factor 2 …; assay: cell-based or functional assay
[2] = molecular target: corticotropin releasing factor 1 receptor; assay: cell-based or functional assay
Throughout, for CRF1R Emax: reference of the scale not given here.
Throughout, for CRF2R Emax: reference of the scale not given here.

CRF2R EC50 [1] | CRF2R Emax [1] | CRF1R EC50 [2] | CRF1R Emax [2] | Binder
4.42 nM | 97.2% | 1000 nM | 29.1% | DNPSLSIDLPLLLLRTLLELARTQSQRERAEQNAIIFASV-NH2 [SEQ ID NO 174]
5.42 nM | 92.2% | 1000 nM | 34.8% | DNPSLSIDLPLILLRTLLELARTQSQRERAEQNAIIFASV-NH2 [SEQ ID NO 175]
12.6 nM | 90.2% | 1000 nM | 26.9% | DNPSLSIDLPLQLLRTLLELARTQSQRERAEQNAIIFASV-NH2 [SEQ ID NO 176]
5.63 nM | 97.7% | 613 nM | 69.2% | DNPSLSIDLPLYLLRTLLELARTQSQRERAEQNAIIFASV-NH2 [SEQ ID NO 177]
5.17 nM | 96.5% | 1000 nM | 55.7% | DNPSLSIDLPLFLLRTLLELARTQSQRERAEQNAIIFASV-NH2 [SEQ ID NO 178]
10.2 nM | 92.5% | 477 nM | 78.9% | DNPSLSIDLPLHLLRTLLELARTQSQRERAEQNAIIFASV-NH2 [SEQ ID NO 179]
3.14 nM | 95.7% | 125 nM | 99.3% | DNPSLSIDLPFLLLRTLLELARTQSQRERAEQNAIIFASV-NH2 [SEQ ID NO 180]
5.22 nM | 97.8% | 154 nM | 100% | DNPSLSIDLPFILLRTLLELARTQSQRERAEQNAIIFASV-NH2 [SEQ ID NO 181]
7.21 nM | 91.4% | 409 nM | 89.7% | DNPSLSIDLPFQLLRTLLELARTQSQRERAEQNAIIFASV-NH2 [SEQ ID NO 182]
7.93 nM | 100% | 415 nM | 57.5% | DNPSLSIDLPFYLLRTLLELARTQSQRERAEQNAIIFASV-NH2 [SEQ ID NO 183]
3.72 nM | 96.5% | 486 nM | 77.3% | DNPSLSIDLPFFLLRTLLELARTQSQRERAEQNAIIFASV-NH2 [SEQ ID NO 184]
8.98 nM | 100% | 358 nM | 95.8% | DNPSLSIDLPFHLLRTLLELARTQSQRERAEQNAIIFASV-NH2 [SEQ ID NO 185]
25.1 nM | 100% | 323 nM | 100% | ZGPPISIDLPHWLLRKMIEIEKQEKEKQQAANNRLLLDTI (C-terminal amide) [SEQ ID NO 186]
10.3 nM | 100% | 31.6 nM | 72% | ZGPPISIDLPWFLLRKMIEIEKQEKEKQQAANNRLLLDTI (C-terminal amide) [SEQ ID NO 187]
14.6 nM | 100% | 162 nM | 96% | ZGPPISIDLPLLLLRKMIEIEKQEKEKQQAANNRLLLDTI (C-terminal amide) [SEQ ID NO 188]
7 nM | 96% | 62.2 nM | 57% | ZGPPISIDLPFILLRKMIEIEKQEKEKQQAANNRLLLDTI (C-terminal amide) [SEQ ID NO 189]
39.6 nM | 31% | > 100 nM | 9% | ZGPPISIDLPFVLLRKMIEIEKQEKEKQQAANNRLLLDTI (C-terminal amide) [SEQ ID NO 190]
8.3 nM | 100% | 63.7 nM | 65% | ZGPPISIDLPFLLLRKMIEIEKQEKEKQQAANNRLLLDTI (C-terminal amide) [SEQ ID NO 191]

The remaining lines, values behind:

Binder | CRF2R EC50 [1] | CRF2R Emax [1] | CRF1R EC50 [2] | CRF1R Emax [2]
IVLSLDVPIGLLQILLEQTKADQLAQQAHSNRKLLDIA-NH2 [SEQ ID NO 159] | 90.8 nM | 62% | > 100 nM | 9%
IVLSLDVPIGLLQTLLELARTQSQRERAEQNRIIFDSV-NH2 [SEQ ID NO 160] | 9.15 nM | 87% | > 100 nM | 10%
SEEPPISLDLTFHLLREVLEMARAEQLAQQAHTNARILARV-NH2 [SEQ ID NO 161] | > 100 nM | 88% | > 100 nM | 77%
SEEPPISLDVPIGLLQEVLEMARAEQLAQQAHSNRKLMEII-NH2 [SEQ ID NO 162] | > 100 nM | 7% | > 100 nM | 11%
IVLSLDVPIGLLQILLEQARARAAREQATSNRKLMEII-NH2 [SEQ ID NO 163] | 4.49 nM | 96% | > 100 nM | 13%
IVLSLDVPIGLLQILLEMARAEQLAQQAHSNRKLMEII-NH2 [SEQ ID NO 164] | 2.24 nM | 92% | > 100 nM | 26%
IVLSLDVPIGLLQEVLEMARAEQLAQQAHSNRKLMEII-NH2 [SEQ ID NO 165] | > 100 nM | 75% | > 100 nM | 19%
IVLSLDVPIGLLQILIEIEKQEKEKQQAANNARILARV-NH2 [SEQ ID NO 166] | 3.7 nM | 99% | 438 nM | 95%
IVLSLDVPIGLLQILLEQEKQEKEKQQATTNARILARV-NH2 [SEQ ID NO 167] | 13 nM | 100% | 1000 nM | 15%
ZGPPISIDLPFQLLRKMIEIEKQEKEKQQATTNRLLLATV (C-terminal amide) [SEQ ID NO 17] | 10.2 nM | 96% | 260 nM | 98%
IVLSLDVPIGLLQILIEIEKQEKEKQQAATTNARILARV-NH2 [SEQ ID NO 168] | 4.9 nM | 75% | 1000 nM | 52%
ZGPPISIDVPTYLLRILIEIEKQEKEKQQATTNARILARV (C-terminal amide) [SEQ ID NO 169] | 17.8 nM | 93% | 978 nM | 26%
ZGPPISIDVPTYLLRKMIEIEKQEKEKQQATTNARILARV (C-terminal amide) [SEQ ID NO 170] | 75 nM | 83% | 1000 nM | 9%
ZGPPISIDVPFQLLRILIEIEKQEKEKQQATTNARILARV (C-terminal amide) [SEQ ID NO 171] | 17.6 nM | 100% | 206 nM | 99%
ZGPPISIDVPFQLLRKMIEIEKQEKEKQQATTNARILARV (C-terminal amide) [SEQ ID NO 172] | 13.5 nM | 100% | 1000 nM | 68%
DNPSLSIDLPTYLLRTLLELARTQSQRERAEQNAIIFASV-NH2 [SEQ ID NO 173] | 100 nM | 65.2% | 1000 nM | 6.05%
ZGPPISIDLPFQLLRKMIEIEKQEKEKQQATTNRLLLDRV (C-terminal amide) [SEQ ID NO 18] | 5.29 nM | 97% | 106 nM | 100%
ZGPPISIDLPFQLLRKMIEIEKQEKEKQQATTNRLLLARV (C-terminal amide) [SEQ ID NO 19] | 7.42 nM | 75% | 232 nM | 83%
